Data as given in article PMC10287957, “RecF protein targeting to postreplication (daughter strand) gaps I: DNA binding by RecF and RecFR”.

Tests used:
RecF [1] = molecular target: T1, RecF (Escherichia coli, UniProt P0A7H0 1-357); experiment: fluorescence anisotropy; conditions: 30 mM Tris-Cl pH 7.5, 100 mM NaCl, 10 mM MgCl2, 0.1 mM EDTA, 1 mM DTT, 30% glycerol, 0.1 mg/ml BSA, 10 nM DNA, 25 C, 3 mM ATP and 5 uM RecR where indicated
T1 sequence: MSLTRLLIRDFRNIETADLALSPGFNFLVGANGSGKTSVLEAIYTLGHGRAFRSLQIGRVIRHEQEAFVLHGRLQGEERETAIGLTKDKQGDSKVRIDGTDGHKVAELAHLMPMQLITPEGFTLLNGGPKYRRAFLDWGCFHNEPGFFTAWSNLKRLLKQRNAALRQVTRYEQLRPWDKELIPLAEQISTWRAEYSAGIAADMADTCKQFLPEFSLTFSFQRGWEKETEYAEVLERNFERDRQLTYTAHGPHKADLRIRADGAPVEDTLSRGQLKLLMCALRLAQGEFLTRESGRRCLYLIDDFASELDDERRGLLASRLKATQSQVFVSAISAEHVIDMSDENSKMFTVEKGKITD

[2] = molecular target: RecF;RecR (Escherichia coli;Escherichia coli) (UniProt P0A7H0); experiment: fluorescence anisotropy; conditions: 3 mM ATP, 5 uM RecR, 30 mM Tris-Cl pH 7.5, 100 mM NaCl, 10 mM MgCl2, 0.1 mM EDTA, 1 mM DTT, 30% glycerol, 0.1 mg/ml BSA, 10 nM DNA, 25 C, 3 mM ATP and 5 uM RecR where indicated
RecF [3] = molecular target: T1, RecF; experiment: fluorescence anisotropy; 3 mM ATP; 30 mM Tris-Cl pH 7.5, 100 mM NaCl, 10 mM MgCl2, 0.1 mM EDTA, 1 mM DTT, 30% glycerol, 0.1 mg/ml BSA, 10 nM DNA, 25 C; 3 mM ATP and 5 uM RecR where indicated; conditions: protein: recombinant; chain copies: 2; label: 5' FAM

20mer dsDNA 5FAM
Kd (RecF [1]; 3 mM ATP, h 2.4): 0.067 µM
Kd [2]: 109 nM

20mer ssDNA 5FAM
Kd (RecF [1]; 3 mM ATP, h 1.1): 0.64 µM

31mer dsDNA 5FAM
Kd (RecF [1]): 0.108 µM

40mer dsDNA 5FAM
Kd (RecF [1]): 0.175 µM

40mer ssDNA 5FAM (random sequence)
Kd (RecF [1]): 0.134 µM

iFAM css (circular 50mer)
Kd (RecF [1]; circularized by ligation): 0.0978 µM
Kd ([2]; circularized by ligation): 68.4 nM

iFAM ss 50mer (dephosphorylated)
Kd (RecF [1]): 0.112 µM

iFAM ss_5P 50mer
Kd (RecF [1]; 5' phosphate): 0.116 µM
Kd (RecF [1]; no ATP, Kd nearly in the uM range, h 1, 5' phosphate): 1 µM

B1: 31 polydT ssDNA 5FAM (ssDNA)
DNA: TTTTTTTTTTTTTTTTTTTTTTTTTTTTTTT
Kd (RecF [3]): 93 nM
